B1: EGFP-HSETΔMotor (domain or fragment, human, UniProt Q9BW19 1-304, looked up)
chain: MDPQRSPLLEVKGNIELKRPLIKAPSQLPLSGSRLKRRPDQMEDGLEPEKKRTRGLGATTKITTSHPRVPSLTTVPQTQGQTTAQKVSKKTGPRCSTAIATGLKNQKPVPAVPVQKSGTSGVPPMAGGKKPSKRPAWDLKGQLCDLNAELKRCRERTQTLDQENQQLQDQLRDAQQQVKALGTERTTLEGHLAKVQAQAEQGQQELKNLRACVLELEERLSTQEGLVQELQKKQVELQEERRGLMSQLEEKERRLQTSEAALSSSQAEVASLRQETVAQAALLTEREERLHGLEMERRRLHNQL
notes: HSET/KIFC1, Homo sapiens kinesin-14, amino acids 1-304 (tail and stalk, motor domain deleted); also called pET15b-HTa-EGFP-HSETΔMotor; source: E. coli BL21DE3, purified (Ni-NTA, size exclusion chromatography); not shown: His6, N-terminal, kept; EGFP, N-terminal, kept
B2: EGFP-HSETΔTail (domain or fragment, human, UniProt Q9BW19 139-673, looked up)
chain: LKGQLCDLNAELKRCRERTQTLDQENQQLQDQLRDAQQQVKALGTERTTLEGHLAKVQAQAEQGQQELKNLRACVLELEERLSTQEGLVQELQKKQVELQEERRGLMSQLEEKERRLQTSEAALSSSQAEVASLRQETVAQAALLTEREERLHGLEMERRRLHNQLQELKGNIRVFCRVRPVLPGEPTPPPGLLLFPSGPGGPSDPPTRLSLSRSDERRGTLSGAPAPPTRHDFSFDRVFPPGSGQDEVFEEIAMLVQSALDGYPVCIFAYGQTGSGKTFTMEGGPGGDPQLEGLIPRALRHLFSVAQELSGQGWTYSFVASYVEIYNETVRDLLATGTRKGQGGECEIRRAGPGSEELTVTNARYVPVSCEKEVDALLHLARQNRAVARTAQNERSSRSHSVFQLQISGEHSSRGLQCGAPLSLVDLAGSERLDPGLALGPGERERLRETQAINSSLSTLGLVIMALSNKESHVPYRNSKLTYLLQNSLGGSAKMLMFVNISPLEENVSESLNSLRFASKVNQCVIGTAQANRK
notes: HSET/KIFC1, Homo sapiens kinesin-14, amino acids 139-673 (stalk and motor, N-terminal tail deleted); also called pFASTBAC-HTa-EGFP-HSETΔTail; tailless HSET; source: Sf9 cells (baculovirus), purified (Ni-NTA, size exclusion chromatography); not shown: His6, N-terminal, kept; EGFP, N-terminal, kept
B3: EGFP-HSET-DoubleTail (other, human)
chain: MDPQRSPLLEVKGNIELKRPLIKAPSQLPLSGSRLKRRPDQMEDGLEPEKKRTRGLGATTKITTSHPRVPSLTTVPQTQGQTTAQKVSKKTGPRCSTAIATGLKNQKPVPAVPVQKSGTSGVPPMAGGKKPSKRPAWDLKGQLCDLNAELKRCRERTQTLDQENQQLQDQLRDAQQQVKALGTERTTLEGHLAKVQAQAEQGQQELKNLRACVLELEERLSTQEGLVQELQKKQVELQEERRGLMSQLEEKERRLQTSEAALSSSQAEVASLRQETVAQAALLTEREERLHGLEMERRRLHNQLQELGGSGGSMDPQRSPLLEVKGNIELKRPLIKAPSQLPLSGSRLKRRPDQMEDGLEPEKKRTRGLGATTKITTSHPRVPSLTTVPQTQGQTTAQKVSKKTGPRCSTAIATGLKNQKPVPAVPVQKSGTSGVPPMAGGKKPSKRPAW
notes: HSET/KIFC1, Homo sapiens kinesin-14, amino acids 1-307 (tail and stalk); flexible amino acid linker; HSET/KIFC1, Homo sapiens kinesin-14, amino acids 1-137 (second copy of the N-terminal tail in place of the motor domain); also called pET15b-HTa-EGFP-HSETDoubleTail; source: E. coli BL21DE3, purified (Ni-NTA, size exclusion chromatography); not shown: His6, N-terminal, kept; EGFP, N-terminal, kept
B4: EGFP-HSET (full-length HSET/KIFC1, human kinesin-14, with N-terminal 6x His tag and EGFP) (natural protein, UniProt Q9BW19 1-673, looked up)
chain: MDPQRSPLLEVKGNIELKRPLIKAPSQLPLSGSRLKRRPDQMEDGLEPEKKRTRGLGATTKITTSHPRVPSLTTVPQTQGQTTAQKVSKKTGPRCSTAIATGLKNQKPVPAVPVQKSGTSGVPPMAGGKKPSKRPAWDLKGQLCDLNAELKRCRERTQTLDQENQQLQDQLRDAQQQVKALGTERTTLEGHLAKVQAQAEQGQQELKNLRACVLELEERLSTQEGLVQELQKKQVELQEERRGLMSQLEEKERRLQTSEAALSSSQAEVASLRQETVAQAALLTEREERLHGLEMERRRLHNQLQELKGNIRVFCRVRPVLPGEPTPPPGLLLFPSGPGGPSDPPTRLSLSRSDERRGTLSGAPAPPTRHDFSFDRVFPPGSGQDEVFEEIAMLVQSALDGYPVCIFAYGQTGSGKTFTMEGGPGGDPQLEGLIPRALRHLFSVAQELSGQGWTYSFVASYVEIYNETVRDLLATGTRKGQGGECEIRRAGPGSEELTVTNARYVPVSCEKEVDALLHLARQNRAVARTAQNERSSRSHSVFQLQISGEHSSRGLQCGAPLSLVDLAGSERLDPGLALGPGERERLRETQAINSSLSTLGLVIMALSNKESHVPYRNSKLTYLLQNSLGGSAKMLMFVNISPLEENVSESLNSLRFASKVNQCVIGTAQANRK
notes: HSET/KIFC1, Homo sapiens kinesin-14, amino acids 1-673; No tag cleavage is described; also called full-length EGFP-HSET; pFASTBAC-HTa-EGFP-HSET; source: Sf9 cells (baculovirus), purified (Ni-NTA, size exclusion chromatography); not shown: His6, N-terminal, kept; EGFP, N-terminal, kept

How the values were obtained:
[1] = target: unlabeled HSET (full-length HSET with N-terminal 6x His tag, no EGFP) (human) (UniProt Q9BW19); test: fluorescence intensity analysis of moving particles (TIRF); first frame of moving EGFP-HSET (with unlabeled tubulin) or moving Cy5-tubulin (10 nM, with 10 nM unlabeled HSET) on GMPCPP-MTs compared with single molecules adhered to glass; BRB80 + 50 mM KCl with 0.5 mg/mL casein
[2] = target: the molecule itself; test: single-molecule stepwise photobleaching (TIRF); single EGFP-tagged molecules adhered to a glass surface; photobleaching traces compared with EGFP-XMCAK, a known dimer; monomers to dimer

Molecule	brightness of moving Cy5-tubulin particles (with HSET) over single Cy5-tubulin molecules [1]	stoichiometry N [2]
Cy5-tubulin (bovine brain tubulin labeled with NHS-Cy5, 100% labeled) (from UniProt Q6B856 1-445) (complex)	11.8 fold	
B1		2
B2		2
B3		2
B4		2
